Target: KLF15-ZF-GST (human) (UniProt Q9UIH9)
Test: DNase I footprinting
Conditions: EMSA: 4 mM HEPES, 5 mM EGTA, 100 mM KCl, 0.25 mM ZnCl2, 0.02% NP40, 0.1 M DTT, 4% glycerol, 90-120 min on ice, pH not stated, footprinting: same buffer

Sequence of KLF15-ZF-GST (human) (Q9UIH9 294-416): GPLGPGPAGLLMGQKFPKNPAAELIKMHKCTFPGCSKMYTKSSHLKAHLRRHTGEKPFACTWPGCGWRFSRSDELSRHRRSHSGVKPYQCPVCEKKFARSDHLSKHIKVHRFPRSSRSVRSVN

| Sequence | binding |
| --- | --- |
| CGCCGGCGGCGCGAACCCGGGGATGCTTCTGAGGCCGGAGCTCAGCCACACGGGGCTCCGGCTGGACGACTCGTGGCTCCAACTCCCCCCCCAGGCCCTTATGAAGTGACCTCCCCTCCCTAAGCTCCCGGCTGAATCAGCACCTCGGAGATTGGGGGCGTTATTAATCATATTAATCCTCACTGCTGCAACGAGGGGCTTAATTGGCTTCCAGGTGGGGCCAAGGTGACTCCAGGTAGAAGGCTGTGGTCGGGGAGAAGGCGGGGCGTGCTGGGGACCCTGGGAAAGAGCAGAGGCCT (double strand) [bovine Rho -225 to +70] | binds |
| GAAGTGACCTCCCCTCCCTAAGCTCCCGGCTGAATCAGCACCTCGGAGATTGGGGGCGTTATTAATCATATTAATCCTCACTGCTGCAACGAGGGGCTTAATTGGCTTCCAGGTGGGGCCAAGGTGACTCCAGGTAGAAGGCTGTGGTCGGGGAGAAGGCGGGGCGTGCTGGGGACCCTGGGAAAGAGCAGAGGCCTGCCCCCAACTCCCCTGTCCCCCTCTGGCATCTCAGCTGATGGCCCTGGCCTGGCATTGGGACCCCTAGCTCTAGGCCCACTTCCCTCT (double strand) [bovine Rho -315 to -31] | binds |
